US11230591

Assays:
[1] = target: recombinant pentameric gH complex (Towne strain) (human cytomegalovirus, Towne strain) (UniProt P17176); assay: BLI competition on His-pentamer; competitor (antibody 2): 3-15
[2] = target: recombinant pentameric gH complex (Towne strain) (human cytomegalovirus, Towne strain) (UniProt P17176); assay: BLI competition on His-pentamer; competitor (antibody 2): 316.2
[3] = target: recombinant pentameric gH complex (Towne strain) (human cytomegalovirus, Towne strain) (UniProt P17176); assay: BLI competition on His-pentamer; competitor (antibody 2): 3-16
[4] = target: recombinant pentameric gH complex (Towne strain) (human cytomegalovirus, Towne strain) (UniProt P17176); assay: BLI competition on His-pentamer; competitor (antibody 2): 270.7
[5] = target: recombinant pentameric gH complex (Towne strain) (human cytomegalovirus, Towne strain) (UniProt P17176); assay: BLI competition on His-pentamer; competitor (antibody 2): 1-103
[6] = target: recombinant pentameric gH complex (Towne strain) (human cytomegalovirus, Towne strain) (UniProt P17176); assay: BLI competition on His-pentamer; competitor (antibody 2): 324.4
CMV virions = assay: virion ELISA
[7] = target: recombinant pentameric gH complex (Towne strain) (human cytomegalovirus, Towne strain) (UniProt P17176); assay: BLI competition on His-pentamer; competitor (antibody 2): 3-7
[8] = target: recombinant pentameric gH complex (Towne strain) (human cytomegalovirus, Towne strain) (UniProt P17176); assay: BLI competition on His-pentamer; competitor (antibody 2): 1-85
[9] = target: recombinant pentameric gH complex (Towne strain) (human cytomegalovirus, Towne strain) (UniProt P17176); assay: BLI competition on His-pentamer; competitor (antibody 2): 70.7
[10] = target: recombinant pentameric gH complex (Towne strain) (human cytomegalovirus, Towne strain) (UniProt P17176); assay: BLI competition on His-pentamer; competitor (antibody 2): 1-150
[11] = target: pentameric gH complex on infectious CMV (neutralization assays) (human cytomegalovirus); assay: cell-based or functional assay
[12] = target: recombinant pentameric gH complex (Towne strain) (human cytomegalovirus, Towne strain) (UniProt P17176); assay: BLI competition on His-pentamer; competitor (antibody 2): 1-32
[13] = target: recombinant pentameric gH complex (Towne strain) (human cytomegalovirus, Towne strain) (UniProt P17176); assay: BLI competition on His-pentamer; competitor (antibody 2): 57.4
[14] = target: recombinant pentameric gH complex (Towne strain) (human cytomegalovirus, Towne strain) (UniProt P17176); assay: BLI competition on His-pentamer; competitor (antibody 2): 276.1
[15] = target: recombinant pentameric gH complex (Towne strain) (human cytomegalovirus, Towne strain) (UniProt P17176); assay: BLI competition on His-pentamer; competitor (antibody 2): 2-25
[16] = target: recombinant pentameric gH complex (Towne strain) (human cytomegalovirus, Towne strain) (UniProt P17176); assay: BLI competition on His-pentamer; competitor (antibody 2): 2-18
[17] = target: recombinant pentameric gH complex (Towne strain) (human cytomegalovirus, Towne strain) (UniProt P17176); assay: BLI competition on His-pentamer; competitor (antibody 2): 124.4

Sequence of recombinant pentameric gH complex (Towne strain) (human cytomegalovirus, Towne strain) (P17176 30-715, one chain of several): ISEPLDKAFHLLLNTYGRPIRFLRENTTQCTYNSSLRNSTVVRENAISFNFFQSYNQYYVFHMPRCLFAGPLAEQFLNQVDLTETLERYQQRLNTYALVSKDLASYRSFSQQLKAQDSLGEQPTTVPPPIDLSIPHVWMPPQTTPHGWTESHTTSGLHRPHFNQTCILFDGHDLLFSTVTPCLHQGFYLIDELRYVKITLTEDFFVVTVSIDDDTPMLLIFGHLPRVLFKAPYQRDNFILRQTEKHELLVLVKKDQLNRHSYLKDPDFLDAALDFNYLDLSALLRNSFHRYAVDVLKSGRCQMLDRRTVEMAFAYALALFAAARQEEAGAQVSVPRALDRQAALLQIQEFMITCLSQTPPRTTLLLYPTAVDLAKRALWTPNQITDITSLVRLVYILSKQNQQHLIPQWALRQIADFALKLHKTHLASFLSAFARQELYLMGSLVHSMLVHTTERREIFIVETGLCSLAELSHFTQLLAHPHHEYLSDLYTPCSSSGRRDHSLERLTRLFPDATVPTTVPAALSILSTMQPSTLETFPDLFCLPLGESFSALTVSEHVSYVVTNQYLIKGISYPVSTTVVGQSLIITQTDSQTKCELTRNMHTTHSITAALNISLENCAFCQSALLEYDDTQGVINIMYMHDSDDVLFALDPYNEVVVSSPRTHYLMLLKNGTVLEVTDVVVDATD

Row | Binder | Pair-wise inhibition (%) [1] | Pair-wise inhibition (%) [2] | Pair-wise inhibition (%) [3] | Pair-wise inhibition (%) [4] | Pair-wise inhibition (%) [5] | Pair-wise inhibition (%) [6] | EC50 (CMV virions) | Pair-wise inhibition (%) [7] | Pair-wise inhibition (%) [8] | Pair-wise inhibition (%) [9] | Pair-wise inhibition (%) [10] | EC50 Neutralizing [11] | IC50 in ARPE-19 [11] | Pair-wise inhibition (%) [12] | Pair-wise inhibition (%) [13] | Pair-wise inhibition (%) [14] | Pair-wise inhibition (%) [15] | Pair-wise inhibition (%) [16] | Pair-wise inhibition (%) [17]
1 | 2-18 (antibody, V domains shown) VH: EVQLVQSGGGLVQPGGSLRVSCAASGFSFSDHDMDWVRQAPGKGFEWVGRSRNKDYSSTTEYAASVRGRFTISRHTSEDLLYLELNTVKTEDTAVYFCARGPHHSDRSGYYGGTFDIWGQGTMVTVSS VL: DIQMTQSPSSVSASVGDRVIITCRASQGISSWLAWYQQKPGRAPRLLIYDASTLESGVPSRFSGRGSGTEFTLTINSLQPEDFATYYCQQGNMFPLTFGGGTKVEIK | 15% | 3% | 17% | -6% | 8% | -1% | 90 ng/mL | 16% | 10% | 6% | 12% | 0.9 ng/mL | 0.18 ng/mL | -1% | 8% | -31% | 117% | 97% | -11%
2 | 1-103 (antibody, V domains shown) VH: QLQLQESGPGLVKPSETLSLTCSVSGDAISGSNYYWGWIRQPPGKGLQWIGSIYHTGSTFYNPSFSSRVTLSVDTSKNQFSLKLISVNAADTAVYYCARRIRGYSGTYDWGQGTLVTVSS VL: DIQLTQSPSFLSASVGDRVTITCRASQDISSYVAWYQQKPGNAPKLLISSASTLPSGVPSRFSGSRSGTDFTLTISSLQPEDFATYYCQQLNNFGPGTTVDIK | -7% | -28% | -38% | -35% | 89% | -19% | 200 ng/mL | -12% | 6% | -31% | -49% | 4 ng/mL | 0.88 ng/mL | -12% | -4% | -2% | -20% | -10% | -22%
